Results published in PMC8533794, “Selection of a Nuclease-Resistant RNA Aptamer Targeting CD19”.

Legend:
[1] = target: T1, CD19 on transfected COS-7 cells (human) (UniProt P15391); experiment: cell binding RT-qPCR; conditions: 200 nM aptamer, poly(I); 2'-fluoro pyrimidines; BLI: running buffer not stated (tips prehydrated in PBS), temperature not stated; cell binding: serum-free medium, 37 C, 30 min, with poly(I) 0.1 ug/uL (qPCR) …
T1 sequence: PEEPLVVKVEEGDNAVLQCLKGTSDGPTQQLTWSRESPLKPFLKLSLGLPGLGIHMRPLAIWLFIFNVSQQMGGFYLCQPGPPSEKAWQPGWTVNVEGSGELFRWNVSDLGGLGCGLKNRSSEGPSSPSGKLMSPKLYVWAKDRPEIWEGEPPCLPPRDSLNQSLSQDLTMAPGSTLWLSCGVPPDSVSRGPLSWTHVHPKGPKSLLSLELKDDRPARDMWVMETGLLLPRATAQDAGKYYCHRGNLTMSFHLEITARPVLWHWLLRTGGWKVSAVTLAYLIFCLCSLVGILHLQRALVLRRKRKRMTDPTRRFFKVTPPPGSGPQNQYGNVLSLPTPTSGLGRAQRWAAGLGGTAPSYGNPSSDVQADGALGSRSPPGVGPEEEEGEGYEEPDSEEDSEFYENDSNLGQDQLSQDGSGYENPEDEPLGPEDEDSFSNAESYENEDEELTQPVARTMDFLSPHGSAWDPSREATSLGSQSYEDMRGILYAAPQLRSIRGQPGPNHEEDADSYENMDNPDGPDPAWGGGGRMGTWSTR

[2] = target: T2, endogenous CD19 of MEC-1 cells (human (MEC-1 B-CLL cell line)) (UniProt P15391); experiment: flow cytometry; conditions: 2'-fluoro pyrimidines; BLI: running buffer not stated (tips prehydrated in PBS), temperature not stated; cell binding: serum-free medium, 37 C, 30 min, with poly(I) 0.1 ug/uL (qPCR) …
T2 sequence: T1 sequence

[3] = target: T3, rhCD19 (recombinant human CD19, extracellular domain) (human, UniProt P15391 20-291); experiment: BLI; 2.5-100 nM aptamer; BLI: running buffer not stated (tips prehydrated in PBS), temperature not stated; cell binding: serum-free medium, 37 C, 30 min, with poly(I) 0.1 ug/uL (qPCR) or tRNA 0.4 ug/uL plus 100 nM Ctrl Apt (FACS); pull-down lysis: 10 mM Tris-HCl pH 7.5, 200 mM NaCl, 5 mM EDTA, 0.1% Triton X-100; conditions: protein: recombinant
[4] = target: rhBCMA (B Cell Maturation Antigen) (human, UniProt Q02223 1-54); experiment: BLI; up to 1 uM aptamer; BLI: running buffer not stated (tips prehydrated in PBS), temperature not stated; cell binding: serum-free medium, 37 C, 30 min, with poly(I) 0.1 ug/uL (qPCR) or tRNA 0.4 ug/uL plus 100 nM Ctrl Apt (FACS); pull-down lysis: 10 mM Tris-HCl pH 7.5, 200 mM NaCl, 5 mM EDTA, 0.1% Triton X-100; conditions: protein: recombinant
[5] = target: T3, rhCD19 (recombinant human CD19, …); experiment: as above; conditions: protein: recombinant

rhBCMA (B Cell Maturation Antigen), sequence (Q02223 1-54): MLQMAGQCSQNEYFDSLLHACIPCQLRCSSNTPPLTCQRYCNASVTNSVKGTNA

## CCUGUUGUUCGACAGGAGGCUCACAACAGG [B88.T2]
[1]
  binding signal (fold over parental COS-7): 7

## UGAGCCCUGUUCGACAGGAGGCUCA [B85.T2 (FAM)]
[2]
  binding signal (fold over Jurkat): 2

## UGAGCCCUGUUCGACAGGAGGCUCA [B85.T2]
[1]
  binding signal (fold over parental COS-7): 22

B1: B85.T2 (structured_RNA)
RNA: UGAGCCCUGUUCGACAGGAGGCUCA
modifications: 2'-fluoro pyrimidines
[3]
  Kd: 49.9 ± 13 nM
[4]
  binding result: no binding

B2: Ctrl Apt (structured_RNA)
RNA: UUCGUACCGGGUAGGUUGGCUUGCACAUAGAACGUGUCA
modifications: 2'-fluoro pyrimidines
[5]
  binding result: no binding
